Amyloid nucleation score data for 139 substances are collected here from the supplement of paper PMC12042874.

This series in a line: amyloid nucleation score (Sup35N fusion, yeast selection) (log enrichment); library NNK1; higher = more nucleation; inactive = no reads after selection. In short, it runs like this:
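DiMSum was used to calculate nucleation scores as log enrichment of output over input reads, centred on the mode score of non-aggregating sequences. Sequences with fewer than 100 input reads were not scored. Input and output came from Illumina sequencing of plasmid inserts in psi-negative yeast expressing peptides of 20 random codons fused to Sup35N, induced 24 hours with 100 μM copper sulfate and then grown 7 days at 30°C on medium lacking adenine and uracil.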

± gives the uncertainty stated by the source.

IWNSVARFRYSSMGFVVSAG came in with an amyloid nucleation score of 0.898 ± 0.93. VVNITYFPMVSVRLICGNVP came in with an amyloid nucleation score of 6.569 ± 0.063. Substance PTWSWWGSWHLGSMPGDNRR came in with an amyloid nucleation score of 0.237 ± 0.78. EWVALRCLDMEGAVAPLALV displayed an amyloid nucleation score of 1.02 ± 0.28.

The substance ALTRS displayed an amyloid nucleation score of -0.074 ± 0.49. For SGGYLADYPLRVNLLFFNFV, the amyloid nucleation score stood at 0.431 ± 0.43. Then TCVGFSGVGKGNSSIKVKEA, with 0.351 ± 0.42; and RYDAWCYGWGVMMLHKFIG, with -0.012 ± 0.64. Substance KPWLVHMHGSSYNGRADAEV registered an amyloid nucleation score of 0.811 ± 0.61.

LVMTNIVLRSVKERVHRLLR returned an amyloid nucleation score of -0.46 ± 0.81.

With CPRVKAHVRKNVFFSLVMSL, the amyloid nucleation score was 0.296 ± 0.44. Consider PEVSIFFLFLGMVYLMWQWV, for which the amyloid nucleation score is -0.839 ± 0.7. In the case of STGPNLKVLVSSKS, the amyloid nucleation score was -1.66 ± 0.69.

For the substance KVNTLCEHSSIHRPVVGNGG, the amyloid nucleation score came to 0.082 ± 0.77.

In the case of VPPCEWHRRTYR, the amyloid nucleation score amounted to 0.176 ± 1.1. RSVSLKWQSRKHWLLTLTLA yielded an amyloid nucleation score of 0.931 ± 0.32. The figure for IDVGSHFCSFQEHKACGTSL is 0.31 ± 0.47; for HRQTNKGEHIQDHAAMLVFR it is -0.18 ± 0.63. On to GRRYELPGPSPYCVRDSGRR, for which the amyloid nucleation score is -0.301 ± 0.65. For GKEDRIG, the amyloid nucleation score is -0.093 ± 0.81. Then RGGSYMFRLYCVFLYGCYFG, with -0.577 ± 0.72. The figure for ISKISPFECGPVVAQ is 1.12 ± 0.73; for PAALAWTNFLKASYDLKMGA it is -0.587 ± 1.3; for VGRNNASLHSDKNRWFGFGF it is 1.49 ± 0.18. Then ALAVVVLFLCVSTPAYVAFE, with 0.923 ± 0.53. Regarding VSSYAIYEECNLPGKAGKPC, the amyloid nucleation score was -0.213 ± 0.63.

As for SEWSRKGVYNACLITG, the amyloid nucleation score was -0.01 ± 0.48. Then TFQHCLRYWPNHSRLNSCRL, with 0.155 ± 0.25. Then SGSSTVWCAYRMTGQPPGRT, with 1.37 ± 0.51; and YSCIYKWHECNNVNDNMK, with 0.149 ± 0.46; and AICRLDVVWVT, with 0.135 ± 0.37. In the case of IAWFYRGPIKLLRLYIGGIW, the amyloid nucleation score is -0.042 ± 0.73. Then PQQEGISLSDALPLPEEGRV, with 0.535 ± 0.4; and NVLTVCCVGLIKSSVSLIEN, with 8.418 ± 0.065; and MSDRKCKKDSRYLWRDLLPE, with 0.264 ± 0.46. Then MTAGLHQ, with 3.47 ± 0.082; and CSLNLNCVS, with 3.76 ± 0.13. The figure for IIKDDLRMCWDGKRYWNSLI is 0.713 ± 0.32. Turning to VHWLNCRLLGSLWVVGANWL, the amyloid nucleation score result is “inactive”. The substance STFAALNVKSCGVCLMWLLD yielded an amyloid nucleation score of 0.1 ± 0.84. Then VANTCWQMMFLRMLSYFLRV, with 0.687 ± 0.44; and LRGRSPNYEALKMLYFFLLV, with 0.314 ± 1.4. Then VEQSFTAAPFQDVLF, with -0.38 ± 0.32; and QFEDLHQLYSMCALPDSTKH, with -0.366 ± 0.93.

Turning to SLNSPL, the amyloid nucleation score worked out at 0.391 ± 0.85. In the case of VRGSVLCHRSLHETKNFL, the amyloid nucleation score is 0.279 ± 0.38. Substance ALKQPVYDGRGPRLGIGPRR gave an amyloid nucleation score of -0.124 ± 1. Consider ERRLTTFCCMWANLGVADGT, for which the amyloid nucleation score amounted to 0.436 ± 1. SECLLYSWRVILSRLSPESE had an amyloid nucleation score of 0.257 ± 0.62. Then NVYAMCTITMNYSVVVTHSC, with 3.35 ± 0.15; and LLNMCNNESTLERNPF, with 1.93 ± 0.37; and EGHARKKEWLTITPRER, with 0.261 ± 0.38. The substance RVNMWRYI displayed an amyloid nucleation score of 0.295 ± 0.4.

QAVRIVGERLAFFGN registered an amyloid nucleation score of 0.607 ± 0.65. The substance SNIFNMGY showed an amyloid nucleation score of 0.187 ± 0.35. VCVGNAETYMERNYV returned an amyloid nucleation score of 0.531 ± 0.4. Then HTKDSGSVARCVVSNLSCNT, with 1.09 ± 0.48; and LWWSSSLLASTAQCQGTGFM, with -0.255 ± 0.76; and VRSLAFTNVYFEEGAYVANT, with -0.532 ± 0.73. CVCLSVARLDYADIFVWTFM yielded an amyloid nucleation score of 2.28 ± 0.13.

KIATKGNIF gave an amyloid nucleation score of -0.951 ± 0.53.

Turning to KGKTVVSEDGEQCHLGCSRT, the amyloid nucleation score is -0.079 ± 0.33.

YFCSSGWANVMLLLSVQTNR: the amyloid nucleation score was determined as 0.173 ± 0.35. As to VIGKMDEVGSIVEFDSGIRV, the amyloid nucleation score was 0.658 ± 0.47. The substance TIRNMMMYYGSSKVSYRMNS registered an amyloid nucleation score of 0.587 ± 0.22. Then NHFVALLSGIGVCSFWKKFG, with -0.257 ± 1.5; and YSEYPSLLGRSSGMIDNFKG, with 0.597 ± 0.28. In turn, GPSLWLKTMVKGYAKTGLYR registered an amyloid nucleation score of -0.219 ± 0.32. Then ESSGRGCVPSEKIDEHGPVT, with -0.319 ± 1. Then PRSANCMCDYDRTAM, with 0.316 ± 0.34; and LTRDLMCEPVLCGLLPVSGR, with 0.314 ± 1.4; and NCSDQALDLQGSMSVQKIFR, with -0.533 ± 0.88. As to TCRKFKYPL, the amyloid nucleation score was 0.372 ± 0.29. On to FKAHRMVLHGYIGSMERG, for which the amyloid nucleation score was -0.186 ± 1.1. In turn, SYDISYDFWVNLVAGRLTSM came in with an amyloid nucleation score of 1.24 ± 0.6. Consider YFFVLEFIVCIVMTITSLSC, for which the amyloid nucleation score is -0.988 ± 0.48. The figure for NKQARVRETRVGLTCVGMLG is -0.321 ± 1.2; for CRRNGGTLMAGE it is 1.21 ± 0.76; for DLEGMPELARDVGAKI it is -0.825 ± 0.98. Then LAEWRLYLRRTVWYLRILIR, with -0.066 ± 1.

For NIIIVNSSVG, the amyloid nucleation score is 1.49 ± 0.37. In turn, PLKHVRQDWCTKLICNSGNY registered an amyloid nucleation score of -0.357 ± 0.43. The figure for AYSLLMDYGFNHLFIRRFSR is -0.067 ± 0.42. Substance ISVKSW showed an amyloid nucleation score of -0.325 ± 0.98. Substance YLVFMQEITLTKQLLWQSMR came in with an amyloid nucleation score of -0.224 ± 0.39. On to ITLKCCMSTRNHMCHR, for which the amyloid nucleation score amounted to 3.75 ± 0.066. Then LQILLLVSCLSQYAANKRRA, with -0.291 ± 0.57; and NFLFAYVLALRLFMYSVNMW, with 4.5 ± 0.054; and ETAEMIAVPDRAHF, with 1.05 ± 0.57. In turn, SYRFFRGMMYLSHVIDLQSR yielded an amyloid nucleation score of -0.307 ± 1.1. With VKPLKHPSGYYAMRRFVYNI, the amyloid nucleation score is -0.566 ± 1.2. Regarding AGLWTLRQMWWFTWGSIDII, the amyloid nucleation score result is “inactive”. Then TGFLR, with 0.12 ± 0.4.

Turning to LRKNSPTFRGSPCQQWYVER, the amyloid nucleation score was determined as 1.27 ± 0.56. The figure for HNKCSFLYMSQYARHRMYSS is 0.218 ± 0.5; for RKNAFDFDAS it is -0.099 ± 0.42. For the substance ALMNGQMVTGALITEWYNWC, the amyloid nucleation score was determined as 0.439 ± 0.97.

As for CFSLWY, the amyloid nucleation score turned out to be 0.089 ± 0.29.

The substance CFIFFPSKIHPLICTKTRAK displayed an amyloid nucleation score of 0.446 ± 0.34. Then TGCLVTWNIENLLRHQTFAM, with 0.227 ± 0.38; and SRLMLFQIFDAKQIDVNDM, with 5.03 ± 0.071; and LVCSLTDNYDEE, with 0.169 ± 0.97. Then VFLMYRLMH, with “inactive”; and FEECLM, with -0.059 ± 0.44; and INRFTICTFHWTGFALNALS, with 2.26 ± 0.17.

Substance DMSFRYLSGSVNLCVVHLRR showed an amyloid nucleation score of -0.244 ± 1.1.

For YLYAACVVWLMLLPNME, the amyloid nucleation score was -0.671 ± 1.2. Then SMGLKPGEVCLNKDFDSH, with 0.036 ± 1.2. With IQWGEKNGCGHLGQFMWYDG, the amyloid nucleation score turned out to be 0.193 ± 0.58. Consider LCLTKNMCTSIVRVRALVCR, for which the amyloid nucleation score is -0.161 ± 0.26. Substance TETQECVSRYVILGGGAGVS yielded an amyloid nucleation score of 0.271 ± 0.71. Then FSRSTQVSER, with 1.38 ± 0.61. The figure for LAWWLCGNLVTWYIITDGQW is 1.04 ± 0.55; for HFICKLND it is 0.354 ± 0.34.

For the substance VDFDPNVLFKWTDMKRSRSR, the amyloid nucleation score was 1.66 ± 0.48. For the substance STVLQWIIGRPLYARDSLAS, the amyloid nucleation score was -0.561 ± 0.6. The figure for RITHRFVFTRAFTNGRALLR is 0.405 ± 0.27. The figure for MPKAQDALTLKNGELKRLSG is 0.295 ± 0.4; for YCGGY it is 2.9 ± 0.087; for TIGASKFMICWTDSFHLQSQ it is 3 ± 0.12. PSLLWAFTLS yielded an amyloid nucleation score of 0.5 ± 0.42. Take GYSYTCPLS: the amyloid nucleation score was -0.217 ± 0.36.

The substance RCDYVEWIWYPCYRRNGVCR yielded an amyloid nucleation score of 0.171 ± 0.39. In turn, SWLIRLSLYWYVNWSCMVGV gave an amyloid nucleation score of -0.009 ± 0.45. SDESKMCRMGYYLPALAIAW gave an amyloid nucleation score of -0.173 ± 0.82.

As to SSCGFMRNVIITMHKADIDR, the amyloid nucleation score result was “inactive”. As for GVLLGVTSFEFFMGTLEVAW, the amyloid nucleation score turned out to be 0.188 ± 1. As to ESLFLVCRPRRQVFIVSCRS, the amyloid nucleation score is -0.716 ± 0.38. Then YLFAWSWEDGFYTGACRLLA, with 0.006 ± 0.29; and GRGWYGSRYARVVHFVWGYA, with -0.487 ± 0.34; and QYWVCNKPTLVDYRDTCDRT, with 0.023 ± 0.89.

Take MSVEIVTIGGGF: the amyloid nucleation score is -0.481 ± 1.4.

With SLLMRIS, the amyloid nucleation score was -0.434 ± 0.61. Consider GNALRMVWERTQGTLPEYRR, for which the amyloid nucleation score turned out to be 0.219 ± 0.59. The figure for FRNTERGEFNVVYGSPGFSR is 0.751 ± 0.51. Substance WFWLIRMYMSFYVVAFVGSG yielded an amyloid nucleation score of 1.31 ± 0.74.

Take IYVYQLSFCCKAY: the amyloid nucleation score amounted to 0.235 ± 0.66.

For VMTWTLCRTRG, the amyloid nucleation score was -0.275 ± 0.4. In the case of FFRDSHYIQRDKSQPSRGSN, the amyloid nucleation score is -0.269 ± 1.1.
